Reference: the RNAGym collection of RNA variant scans (doi:10.1073/pnas.2313332121)
This sample holds only a part of the variants without activity.

B1: TPR 5TU (parent)
chain: GGAUCUUCUCGAUCUAACAAAAAAGACAAAUCUGCCACAAAGCUUGAGAGCAUCUUCGGAUGCAGAGGCGGCAGCCUUCGGUGGCGCGAUAGCGCCAACGUUCUCAACUAUGACACGCAAAACGCGUGCUCCGUUGAAUGGAGUUUAUCAUG

Variants of: B1
Experiment: polymerase ribozyme fitness, log enrichment relative to wild type (log ratio); higher = more active; in vitro selection for triplet polymerase activity
How it was run: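 Both subunits of a heterodimeric triplet polymerase ribozyme were given their own mutant library, built by PCR and transcribed. Each library was annealed with a biotinylated primer, the partner subunit and triplets, incubated frozen at −7 °C, and its extended constructs gel-excised, captured on streptavidin beads and amplified by RT-PCR, all in one round done in triplicate. Fitness is the logarithm of genotype enrichment relative to wild-type enrichment, with replicates averaged by inverse-variance weighting. That logarithm is base 2, and Illumina-sequenced genotypes needed ≥10 input reads and ≥1 read per output.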

Row | Variant | polymerase ribozyme fitness (log ratio)
1 | A52U G80C G126A G133C | ≤ -4.2
2 | C51U C93G A120C G143C | -4.17
3 | A52G C93U | -1.74
4 | A52G C93G | -3.95
5 | A52G C93A | -3.25
6 | A52C C54U U78A C87U U135A | ≤ -4.2
7 | C51G G88A | ≤ -4.2
8 | C51G U53A G83C C118U G128A | ≤ -4.2
9 | U53A C57A U102G C125A U134A | ≤ -4.2
10 | C51A C95U A119G | -1.34
11 | C51A C118U G152A | -3.06
12 | A52U G84C C116U U146G | -4.11
13 | A52G A150C | -3.43
14 | A52C C57G G94A G100U U148A | ≤ -4.2
15 | U53A C76G G92A A107C G124U C149A | ≤ -4.2
16 | A52U U55A U56G A66G C99A C132U | ≤ -4.2
17 | A52C C69G G74C | ≤ -4.2
18 | A52C G71A C85A G94C G141U | ≤ -4.2
19 | U53C C54U C96A A120U | -0.901
20 | C51U U53A A110C C116A | ≤ -4.2
21 | C51A C93U | -2.22
22 | U53A A73C | -3.99
23 | U53A C95G C96G U146A | -3.91
24 | U53A C54U C85U G141U | -1.21

Row | Variant | polymerase ribozyme fitness (log ratio)
25 | C51U A66C G74A U90G U111G | ≤ -4.2
26 | A52G G94C U102C C131U | -1.64
27 | A52G U77G A91C | ≤ -4.2
28 | A52G C87U C116G A122C G136U | -2.85
29 | U53A G67C C76G G84A C114U | -4.1
30 | A52G A97U | -0.8
31 | C51G G94A U135A | -3.11
32 | C51A A89C C93U G117U A137U A150C | ≤ -4.2
33 | C51A C85U C103G G124A U145G A150G | ≤ -4.2
34 | A52G U55A G59C G86U A142C G143C | ≤ -4.2
35 | C51A G92U | -1.06
36 | A52G A60G C85A C95G A97G U102A C125A | ≤ -4.2
37 | U53A G126A | -0.879
38 | U53A G126U | 0.134
39 | A52G G83C C93U | -3.66
40 | U53A C103U | -0.534
41 | U53C A150G | -1.01
42 | A52G C54A C69A C87G U90C G100U C103A C105G | ≤ -4.2
43 | U53A U61A A106U C129U | -3.27
44 | C51A C99G G141C | ≤ -4.2
45 | C51G G136U U144G | -2.56
46 | U53A A64G | -3.41
47 | C51A C75U A98U | -3.28
48 | C51A U61A C95U | -2.06

Row | Variant | polymerase ribozyme fitness (log ratio)
49 | C51U C87U C103A C116A | -2.08
50 | U53A C118U U134C G141A U146C | -0.702
51 | A52C C54U | -1.87
52 | A52G C72U G81A G86A C103G A122C | ≤ -4.2
53 | C51A G136A | -0.23
54 | U53A G81C C85G C108U A138G A147G A150U G152U | -3.91
55 | U53A G59A C85G C149U | -3.31
56 | U53A C99U U134A | -3.7
57 | U53A C95U A138C | ≤ -4.2
58 | A52U G84A | -2.18
59 | A52C C76G | ≤ -4.2
60 | A52C C76A | ≤ -4.2
61 | U53A G128C A137C U148G C149G | ≤ -4.2
62 | A52G C95G A107G A120G U139C | -4.13
63 | A52C U55A A91G U111A U139G | ≤ -4.2
64 | C51U G124A G133C G140A A150G | ≤ -4.2
65 | A52G C57A G84A | -0.599
66 | A52G G136U A142G | -3.58
67 | A52G G92A | -3.13
68 | A52G G92C | -1.46
69 | A52G G152C | -3.59
70 | A52G | -0.491
71 | A52U | -1.49
72 | A52C | -0.883

Row | Variant | polymerase ribozyme fitness (log ratio)
73 | A52U C79A A110U C116U A120U C131G | ≤ -4.2
74 | C51A C63A U82A | -0.419
75 | U53C C57A C95U A98G U104A | -0.528
76 | A52U C123G | -1.97
77 | A52C C93G A122G | -3.18
78 | U53C C118U C129G G141A | ≤ -4.2
79 | A52C U55A C72U A98U | -3.14
80 | C51U G62C G70A A115U C116A | ≤ -4.2
81 | U53A U102G G126A | -3.76
82 | A52G C76A | -0.0301
83 | C51G G62U G92A C96A | ≤ -4.2
84 | U53A G94C | -1.3
85 | A52C C54U U55G G67C G71U C85U G143C | ≤ -4.2
86 | C51G C85A G92U C95A | ≤ -4.2
87 | U53A C72G C85U U127A | ≤ -4.2
88 | C51U G58A G92C G136A U148C | -3.3
89 | U53C | -0.375
90 | U53A | -0.874
91 | C51U C103A | -1.29
92 | A52G A106G G143A | -0.542
93 | A52C A106G U139C | ≤ -4.2
94 | A52G U148G | -4.18
95 | U53A G70C C76A G86U A98U | ≤ -4.2
96 | A52G A66C G84C C85A G126U | ≤ -4.2

Row | Variant | polymerase ribozyme fitness (log ratio)
97 | U53A G83A | -1.64
98 | A52U U55A A115U C118A G126U A150U | ≤ -4.2
99 | A52C A73G A138G | ≤ -4.2
100 | A52G C87U | -1.3
101 | U53A C87A A89U G141C | ≤ -4.2
102 | A52G G58C G68C | ≤ -4.2
103 | C51G G80A G84U G140C | ≤ -4.2
104 | U53A G74A U77A C96U G126C | ≤ -4.2
105 | U53C C72A U139C A150G | ≤ -4.2
106 | U53A G81A C99U | -2.36
107 | U53A G58A C93U C116U | -0.438
108 | A52G U53A A119U G126C | 0.147
109 | C51A C72A G80U U146C | ≤ -4.2
110 | A52C U56C C103G G143C | -4.12
111 | A52C G83C | -2.29
112 | C51A C96U | -1.91
113 | U53A C131A | -3.17
114 | A52G C69U A106C C125U | -4.12
115 | U53A C85U G133C | -2.22
116 | A52G U56A C87A C93A A113G U135A | ≤ -4.2
117 | U53A C99U | -2.58
118 | A52U G92C | -2.01
119 | A52G A106U U135A | -1.7
120 | C51U G68U C87U U145C | ≤ -4.2

Row | Variant | polymerase ribozyme fitness (log ratio)
121 | C51U G83U G86U G94A U135G U144G G152C | ≤ -4.2
122 | A52C A142G | -1.98
123 | C51U G86C A113G C114U A121G U151G | ≤ -4.2
124 | C51G U53G C75A C103A | ≤ -4.2
125 | U53A G80C | ≤ -4.2
126 | U53A C54A U82A G141C | -2.84
127 | A52G G83A | -0.0714
128 | A52U U53A C57A G81U G83C C103G G126A | ≤ -4.2
129 | U53A G62C G84A G136A | -3.58
130 | A52G A64U U101G A107C C125G | ≤ -4.2
131 | U53A U55A | -2.2
132 | A52G G100U | -3.98
133 | A52G C57A A73U | -0.666
134 | A52C C93U U102G | ≤ -4.2
135 | C51U C103A A121C | -1
136 | U53A A107U U144G | -2.6
137 | A52G A60U G71A A121U U135G U148A | -4.18
138 | A52U A137G | -2.89
139 | A52C G84U U144G | -2.05
140 | U53C A97U C114G U145A | -3.74
141 | U53A A73G G74C C85A U90C | ≤ -4.2
142 | C51A G124A | -0.00389
143 | C51A C63A G88U G126A | ≤ -4.2
144 | A52C U53A U148G | ≤ -4.2

Row | Variant | polymerase ribozyme fitness (log ratio)
145 | A52C C85G G92U | ≤ -4.2
146 | C51U C95G C105G G117U | -3.53
147 | C51U C96G C132A | -3.26
148 | C51A C85A | -2.75
149 | U53A G94C C105A C118U | ≤ -4.2
150 | A52C C75U C85G C95G | ≤ -4.2
151 | A52G U53A G84A | -0.8
152 | A52U G143U U148A | -4.01
153 | A52G C108G | ≤ -4.2
154 | A52G C57A C79U C85A C116U A122G | ≤ -4.2
155 | A52C C57U G86U C99U C118U C125G G143A U151A | ≤ -4.2
156 | A52C G88A | -3.57
157 | U53A A73G G86A G92U C95U G143U | ≤ -4.2
158 | C51U C93U U109G C116U | -3.68
159 | C51U A115U | -2.12
160 | A52C A60C | -2.71
161 | C51A G81A A147G U148G | ≤ -4.2
162 | C51U C95A U104C C116G | -0.304
163 | A52G G58U | -0.0148
164 | A52G C96G G112C | ≤ -4.2
165 | C51A C54G G59C G84A C116G | -3.63
166 | A52G U53G A106C A119U G136U | ≤ -4.2
167 | U53A G136U U144G | -1.85
